# Tested on: MS2 coat protein
# Test: apparent KD of MS2 coat protein; designed switch direction (-1 OFF switch, 1 ON switch): 1; higher = weaker reporter binding
# In short: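 The reported apparent KD is a per-design median over clusters, from curve fits of normalised cluster fluorescence. Protein titrations used SNAP-549-labelled MS2 coat protein, doubled from 0.7 or 1.5 nM to 3 µM, in Tris-HCl pH 7.5 buffer with KCl, MgCl2, BSA, DTT, tRNA and Tween-20, with no input, 200 uM small-molecule ligand, or an oligonucleotide input. The RNA switches were transcribed on Illumina chips by stalled E. coli RNA polymerase.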
# [1] = input ligand: microRNA oligo, concentration not stated
# [2] = Eterna round: R95, input ligand: FMN 200 uM
# [3] = Eterna round: R95, input ligand: microRNA oligo, concentration not stated
# [4] = Eterna round: R95, input ligand: none
Sequence,apparent KD of MS2 coat protein (input ligand: FMN 200 uM) [nM],apparent KD of MS2 coat protein [1] [nM],apparent KD of MS2 coat protein (input ligand: none) [nM],apparent KD of MS2 coat protein [2] [nM],apparent KD of MS2 coat protein [3] [nM],apparent KD of MS2 coat protein [4] [nM]
"UUUCGAUAGAUAGGAUAUCACCUUACAUGAGGAUCACCCAUGUUGGCCGUGCUGGUUAUUCAUACUGAGAAGGAUCUUGAUGAC [JR_SSNG2_Sub004] (Eterna round: R96, puzzle: Same State NG 2)",39.4,37,45,–,–,–
"AUAACAAUGGCAGGAUAUGGGAUUGGAAGUGUUCCAGAAGGGCCAUAACGGCGAUGGACAUGAGGAUCACCCAUGUCUUAGCCU [MOD2 Powerstrip SSNG 1.4] (Eterna round: R96, puzzle: Same State NG 1)",14.3,6.26,15,–,–,–
"ACUGCAAUUAACGCCUACAUGAGGAUCACCCAUGUAUGUAGGCAGGAUAUCGUUUGCUUUGCAAACGAGAAGGGCUGUAGUAGC [salish99_SSNG3_R04_003] (Eterna round: R96, puzzle: Same State NG 3)",59.1,59.4,64.1,–,–,–
"GCCAUCGCAUGAGGAUAUGGCACCGAAACGGUGCCAGAAGGCAUGUCGAAAGACAUGAGGAUCACCCAUGUAGUAUAGAUGGCA [Mat - Same State NG 1 - JL mod - D93] (Eterna round: R96, puzzle: Same State NG 1)",222,228,900,–,–,–
AGUCCAGCCUGAGCUGGACAAAAGCAUGUACAUGAGGAUCACCCAUGUUCAUGUACAAGCUUUUUGCUCGUCGUAAU [Mat - hsa-mir-208a - Mod of JL - 48] (puzzle: Sensor for hsa-mir-208a),–,–,–,501,16.7,611
"UUGAUGUACUGAGGAUAUCGUGUCGUCUGAUUUGACAUGAGGAUCACCCAUGUGGGAAGUGGUAUCGAGAAGGCAGUUUUCUUA [JR_SSNG2_Sub028] (Eterna round: R96, puzzle: Same State NG 2)",151,351,745,–,–,–
"UGCUACUGGGUAGGAUAUUUAGGAUAUGGGAAAGACUAAGUCUGUAGGUCACCUAACCCAGAAGGAGAGAAGGACCAUUCAGCU [pwkr ssNG2 2FMN + F9.33] (Eterna round: R96, puzzle: Same State NG 2)",29.5,55.3,32.7,–,–,–
"GUAGCAUACCGAGGAUAUUCAUAACAUGAGGAUCACCCAUGUAUUAGGCCACAUUAGUGGCCUUGGGAGAAGGCGGAAUGCUAC [Xeonanis - 20 Mod45] (Eterna round: R96, puzzle: Same State NG 2)",12.1,11.9,16.9,–,–,–
"GGCUAGCCUCAAGGAUAUACGCUCUCAACAAAGAACCGACUACAUGAGGAUCACCCAUGUACCAUGUAGAAGGUGAGGUUAGCC [Eternabot solution 4] (Eterna round: R96, puzzle: Same State NG 2)",–,397,–,–,–,–
AGAGAACAUGAGGAUCACCCAUGUGGGAUGGGCAUAGGAUAUAGAGGAGAGAGGGAGGAACUAGAAGGAUGAUGGA [JR_SS1_Sub079] (puzzle: Same State 1),–,–,–,43,103,50.3
"UUUGAAUUGCAAGGAUAUUGAUAACAUGAGGAUCACCCAUGUAAUUGUUCGAGUUAGAUUAGUUACAAGAAGGUGCUAUUGUUU [JR_SSNG2_Sub039] (Eterna round: R96, puzzle: Same State NG 2)",385,165,287,–,–,–
AGUCCAGCCUGAGCUGGACUGAAGCAUGUACAUGAGGAUCACCCAUGUUCAUGUACAGGCUUUUUGCUCGUCUUAUG [JL-shm-2.02 JL mod] (puzzle: Sensor for hsa-mir-208a),–,–,–,842,18.2,879
AAAAUACAUGAGGAUCACCCAUGUAGAAACUACACAGGAUAUCGGACGGCUGUAGCCGAACGAGAAGGGUGAACCC [Uszadi] (puzzle: Same State 1),–,–,–,205,228,313
"AGAUCAUGACGAGGAUAUGGAACAUGAGGAUCACCCAUGUAUGUUCCAUAACGCGAACGACGAAUCCAGAAGGCGUCGUGGUCA [JL SSNG2 1.09] (Eterna round: R96, puzzle: Same State NG 2)",7.15,18.6,28.3,–,–,–
CUCAAACAUGAGGAUCACCCAUGUGUUGUCAUGGGAGGAUAUCUAAGUUCGUUGUAUUCGGGAGAAGGCCUAUGUC [× ×•×ª×• ×ž×“×™× ×” × ×—×ª-10] (puzzle: Same State 1),–,–,–,–,199,–
GUAAAACAUGAGGAUCACCCAUGUAAUAAUAUGGGAGGAUAUCAGAUUUAAUUUAAUUUAUGAGAAGGCCUAAAGU [Mat - Same State 1 - Mod of Eli - D63] (puzzle: Same State 1),–,–,–,94.4,16.4,628
"UUAAUAAAGUAAGGAUAUACAUGAGGAUCUCUCGUAGAAGGUACUAUACAUGAGGAUCACCCAUGUGCCGGUCCGUAGACUGGA [Mat - Same State NG 1 - JL mod - D7] (Eterna round: R96, puzzle: Same State NG 1)",–,124,–,–,–,–
"AUAUGAGAAGCAGGAUAUGCGGAGAAGAAAGAAGCAGAAGGGCUUAUGGGACAACAUGAGGAUCACCCAUGUUCUCUGUGAUGA [AK SSNG1-V2-3] (Eterna round: R96, puzzle: Same State NG 1)",24.3,48.9,56.5,–,–,–
UUUAUACAUGAGGAUCACCCAUGUCAAUGUAGUCGAGGAUAUGGGCAGCUGUGAGGCGUACUAGAAGGCGAAGAGG [JL-ss1-3.09 ViennaUCT mod] (puzzle: Same State 1),–,–,–,103,378,579
"GUAGCAUACCGAGGAUAUUCAUAAUACAUGAGGAUCACCCAUGUUAAUAAUAGGCGAAAGCCUUGGGAGAAGGCGGAAUGCUAC [Xeonanis - 20 Mod69] (Eterna round: R96, puzzle: Same State NG 2)",11.4,9.05,16.2,–,–,–
"AGCUAUUACGAAGGAUAUAGUAACAUGAGGAUCACCCAUGUUUACAUGAUUAAUUGUGAUCACGUCUAGAAGGUUGUACUAACA [SameState NG2 #34] (Eterna round: R96, puzzle: Same State NG 2)",33.1,30.2,37.1,–,–,–
GGAGCCGGCACCGAGGAUAUUCAUAUUAAAACAUGAGGAUCACCCAUGUAGAGCAGAAGCUCUUGGGAGAAGGCGGAUCGGCUCG [Xeonanis - 27] (puzzle: Same State 2),–,–,–,28.4,306,549
"UUAAUUUACUGAGGAUAUCGUGUCGACUGAGUUGACAUGAGGAUCACCCAUGUGAGAAGUGGUAUCGAGAAGGCAGUUUUCUUA [JR_SSNG2_Sub025] (Eterna round: R96, puzzle: Same State NG 2)",17.8,82,102,–,–,–

# — the supplement of paper PMC9170038
